Data: publication PMC9997507

Target: ADAM23-Fc (UniProt Q9R1V7)
Assay: pull-down; as a2 but with co-expressed LGI3 (LGI3V5/His plasmid); secreted proteins precipitated from conditioned medium with Protein A or Ni-NTA beads; Western blot, band densities quantified in triplicate for ADAM23Fc with ADAM23γHis

fold change of the interaction with LGI3 against without LGI3: 2.5 fold
Substance: ADAM23γV5/His (domain or fragment)
